Numbering of substitutions follows the chain as printed.
T1: HER4 (R&D Systems, #1131-ER-050) (human, UniProt Q15303 26-651)
T1 construct: extracellular domain; Bought
T1 sequence (looked up): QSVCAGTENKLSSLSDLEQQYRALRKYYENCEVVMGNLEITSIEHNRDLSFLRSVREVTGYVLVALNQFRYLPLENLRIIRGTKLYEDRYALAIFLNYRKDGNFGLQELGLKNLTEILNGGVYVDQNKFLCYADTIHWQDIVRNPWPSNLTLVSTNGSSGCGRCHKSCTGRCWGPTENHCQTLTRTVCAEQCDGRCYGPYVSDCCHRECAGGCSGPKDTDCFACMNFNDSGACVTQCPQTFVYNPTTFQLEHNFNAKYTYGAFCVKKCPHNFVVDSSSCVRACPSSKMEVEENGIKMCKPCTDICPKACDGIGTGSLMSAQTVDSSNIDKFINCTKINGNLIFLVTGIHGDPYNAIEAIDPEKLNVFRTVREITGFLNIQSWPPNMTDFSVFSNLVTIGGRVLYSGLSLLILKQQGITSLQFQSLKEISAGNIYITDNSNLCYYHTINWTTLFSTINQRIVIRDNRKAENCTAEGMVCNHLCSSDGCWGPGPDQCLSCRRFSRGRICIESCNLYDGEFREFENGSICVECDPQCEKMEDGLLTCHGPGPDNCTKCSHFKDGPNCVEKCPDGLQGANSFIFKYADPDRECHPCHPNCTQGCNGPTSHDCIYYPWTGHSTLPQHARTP

B1: hz39D2 (antibody, V domains shown)
VH: QVQLVQSGSELKKPGASVKVSCKASGYTFTNYGVNWVRQAPGQGLEWMGWINTHTGEPTYAEEFKGRFVFSLDTSVSTAYLQISSLKAEDTAVYYCARDDYYVRVDYWGQGTTVTVSS
VL: DIQMTQSPSSLSASVGDRVTITCKASQDINSYLSWFQQKPGKAPKTLIYRANRLVDGVPSRFSGSGSGQDYTLTISSLQPEDFATYYCLQYDEFPWTFGQGTKVEIK
notes: Humanized antibody, captured as IgG by anti-human IgG in SPR; also called humanized 39D2 antibody
B2: hz39D2.23 (antibody, human IgG1, kappa, V domains shown)
VH: B1 VH with D100E
VL: DIQMTQSPSSLSASVGDRVTITCKASQDINSYLSWFQQKPGKAPKTLIYRANRLVDGVPSRFSGSGSGQDYTLTISSLQPEDFATYYCLQLDEFPWTFGQGTKVEIKR
B3: hz39D2.14 (antibody, V domains shown)
VH: B1 VH with D100E, V105T
VL: B1 VL
B4: hz39D2.22 (antibody, V domains shown)
VH: B1 VH with D100E
VL: B1 VL with Q90E, Y91L
B5: 24D3 (antibody, V domains shown)
VH: EVKLVESGGGLVKPGGSLKLSCAASGFTFSSCAMSWVRQTPEKRLEWVATISGGGSYTYYPDSVKGRFTISRDNAKNTLYLQMSSLRSEDTAMYYCARHGGYESWFPYWGQGTLVTVSA
VL: DIVMTQSPLSLPVSLGDQASISCRSSQSLVHSNGNTYLHWYLQKPGQSPKLLIYKVSNRFSGVPDRFSGSGSGTDFTLKISRVEAEDLGVYFCSQSTHVPPWTFGGGTKLEIK
B6: 1G3 (antibody, V domains shown)
VH: EVQLQQSGAELVKPGASVKLSCTASDFNIVDTYMHWVKQRPEQGLEWIGRIDPANGYTRYDPNFQGKATITADTSSNTAYLQLSSLTSEDTAVYYCARYYYGFYAMDYWGQGTTVTVSS
VL: DIVMTQSHKFMSTSVGDRVSITCKASQDVSTAVAWYQQKPGQSPKLLIYSASYRYTGVPDRFTGSGSGTDFTFTISSVQAEDLAVYYCQQHYSTPPTFGGGTKLELK
B7: hz2G10 (antibody, V domains shown)
VH: EVQLVESGGGLVQPGGSLRLSCAASGFTFSDYYMYWVRQAPGKGLEWVAYINSGGGSTYYPDTVKGRFTISRDNAKNSLYLQMNSLRAEDTAVYYCAREALYDYDYAMDYWGQGTTVTVSS
VL: DIVMTQSPLSLSVTPGQPASISCKSSQSLLYSNGKTYLNWLLQKPGQSPQRLIYLVSKLDSGVPDRFSGSGSGTDFTLKISRVEAEDVGVYYCVQGTHFPLTFGGGTKVEIK
notes: Humanized antibody, detected with anti-human IgG-HRP; Only the variable domains are tied to the name; also called humanized 2G10 antibody

biological target: T2, HER2-ECD-His (human, UniProt P04626 23-652); test: SPR (Biacore, CM5), IgG captured by anti-human IgG, HER2-ECD-His as analyte
T2 construct: extracellular domain; also called HER2-His; HER2-ECD-His protein; not shown: His tag
Experimental: 2000 RU of goat anti-human IgG (Invitrogen, #H10500) was immobilized onto a CM5 sensor chip by […]. Then, the antibodies were allowed to bind at a rate of 50 μL/min for 5 minutes and then stabilized for 5 minutes by flowing a buffer. After stabilizing the antibodies, the HER2-ECD-His protein was allowed to bind at a rate of 50 μL/min for 4 minutes and then separated by flowing a buffer for 15 minutes. After analyzing the concentration, the resultant was recycled using 10 mM glycine (pH 1.5) and then subjected to the subsequent assay. The affinity of the antibodies was analyzed using the BIAevaluation software.

Row | Kd | koff | kon | Binder
1 | 37 nM | 0.0025 s⁻¹ | 68000 M⁻¹ s⁻¹ | B1
2 | 2.8 nM | 0.0002 s⁻¹ | 71000 M⁻¹ s⁻¹ | B2
3 | 8 nM | 0.0003 s⁻¹ | 37000 M⁻¹ s⁻¹ | B3
4 | 2 nM | 0.00016 s⁻¹ | 81000 M⁻¹ s⁻¹ | B4

biological target: T3, HER2-ECD-Fc (human, UniProt P04626 23-652); test: ELISA on HER2-ECD-Fc; antibody at 5 × 10^-5 µg/mL
T3 construct: extracellular domain; Produced in FreeStyle 293F cells; also called HER2-ECD Fc fusion protein

Row | absorbance | Binder
5 | 0.12 | B5
6 | 0.15 | B1
7 | 0.14 | B6
8 | 0.12 | B7

biological target: T3, HER2-ECD-Fc; test: ELISA on HER2-ECD-Fc; antibody at 5 × 10^-6 µg/mL

Row | absorbance | Binder
9 | 0.11 | B5
10 | 0.12 | B1
11 | 0.11 | B6
12 | 0.12 | B7

biological target: T3, HER2-ECD-Fc; test: ELISA on HER2-ECD-Fc; antibody at 5 × 10^-4 µg/mL

Row | absorbance | Binder
13 | 0.22 | B5
14 | 0.47 | B1
15 | 0.35 | B6
16 | 0.12 | B7

biological target: T3, HER2-ECD-Fc; test: ELISA on HER2-ECD-Fc; antibody at 50 µg/mL

Row | absorbance | Binder
17 | 2.75 | B5
18 | 2.83 | B1
19 | 2.76 | B6
20 | 2.81 | B7

biological target: T3, HER2-ECD-Fc; test: ELISA on HER2-ECD-Fc; antibody at 5 × 10^-7 µg/mL

Row | absorbance | Binder
21 | 0.11 | B5
22 | 0.12 | B1
23 | 0.11 | B6
24 | 0.12 | B7

biological target: T3, HER2-ECD-Fc; test: ELISA on HER2-ECD-Fc; antibody at 5 × 10^-1 µg/mL

Row | absorbance | Binder
25 | 2.9 | B5
26 | 2.78 | B1
27 | 2.78 | B6
28 | 2.69 | B7

biological target: T1, HER4 (R&D Systems, #1131-ER-050); test: ELISA on ErbB family extracellular domains, Absorbance at 450 nm; antibody concentration not given
Description: (§1) It was investigated whether the developed five antibodies of the present disclosure specifically bind to HER2 belonging to the ErbB family proteins by ELISA.

Row | binding result | Binder
29 | no binding | B5
30 | no binding | B1
31 | no binding | B6
32 | no binding | B7

biological target: T4, HER3 (R&D Systems, #348-RB-050) (human, UniProt P21860 20-643); test: as above
T4 construct: extracellular domain; Bought
Description: as §1

Row | binding result | Binder
33 | no binding | B5
34 | no binding | B1
35 | no binding | B6
36 | no binding | B7

biological target: T5, EGFR-ECD-Fc (human, UniProt P00533 25-645); test: as above
T5 construct: extracellular domain; also called extracellular domain of EGFR; not shown: Hinge and Fc region (CH2-CH3) of human IgG1; The protein was produced in the same manner as HER2-ECD-Fc
Description: as §1

Row | binding result | Binder
37 | no binding | B5
38 | no binding | B1
39 | no binding | B6
40 | no binding | B7

biological target: T3, HER2-ECD-Fc; test: ELISA on HER2-ECD-Fc; antibody at 5 × 10^-2 µg/mL

Row | absorbance | Binder
41 | 2.76 | B5
42 | 2.92 | B1
43 | 2.79 | B6
44 | 1.16 | B7

biological target: T3, HER2-ECD-Fc; test: ELISA on HER2-ECD-Fc; antibody at 5 µg/mL

Row | absorbance | Binder
45 | 2.92 | B5
46 | 2.9 | B1
47 | 2.81 | B6
48 | 2.79 | B7

biological target: T6, HER2-ECD DIII Fc (human, UniProt P04626 342-510, limits assumed); test: ELISA on plate-coated HER2 domain-Fc fusion (1 µg/mL), anti-human IgG-HRP, Abs 450 nm; antibody concentration not given
T6 construct: domain: domain 3; also called domain 3 of the extracellular domains of the HER2 protein; not shown: Hinge and Fc region (CH2-CH3) of human IgG1, at the C-terminus
Experimental: (§2) The HER2-ECD DI Fc, HER2-ECD DII Fc, HER2-ECD DIII Fc, HER2-ECD DIV Fc and HER2-ECD Fc fusion proteins were immobilized at 4° C. overnight onto a Costar 96-well plate (Corning, Cat. No. 3590) at a concentration of 1 μg/mL […]. The resultant was washed 3 times with TBS-T (0.05% Triton X-100) and then blocked at room temperature for 1 hour with 100 μL of TBS-T/BSA (5% BSA). After washing the blocked plate 3 times and adding the anti-HER2 antibody, the antibody was allowed to bind at room temperature for 1 hour. After washing 3 times and then adding anti-human IgG-HRP diluted to 1:3,000 in TBS-T/BSA, as a secondary antibody, the antibody was allowed to bind at room temperature for 1 hour. After washing the resultant 3 times and adding TMB (SurModics, Cat. No. TMBC-1000-01), the mixture was allowed to develop color at room temperature for 5 minutes. Then, the color development was stopped by adding 1 N sulfuric acid (DukSan, Cat. No. 254). Absorbance was measured at 450 nm using Victor X3 (PerkinElmer, Cat. No. 2030-0030).

Row | binding result | Binder
49 | no binding | B1
50 | no binding | B6
51 | no binding | B7

biological target: T7, HER2-ECD DI Fc (human, UniProt P04626 23-217, limits assumed); test: as above
T7 construct: domain: domain 1; also called domain 1 of the extracellular domains of the HER2 protein; not shown: Hinge and Fc region (CH2-CH3) of human IgG1, at the C-terminus
Experimental: as §2

Row | binding result | Binder
52 | no binding | B5
53 | no binding | B6

biological target: T3, HER2-ECD-Fc; test: ELISA on HER2-ECD-Fc; antibody at 5 × 10^-3 µg/mL

Row | absorbance | Binder
54 | 1.13 | B5
55 | 2.29 | B1
56 | 1.77 | B6
57 | 0.22 | B7

— patent publication US20260028418A1 (GC CELL, published 2026)
